Series [1] relates to HeLa Kyoto. As to the kind of experiment: solubility in G1/S (NP-40 vs SDS abundance) (log2 ratio); higher = more soluble. Particulars: cell cycle stage: G1/S.
The subject of series [2] is HeLa Kyoto. As to the kind of experiment: melting temperature (median over replicates), in situ; higher = more thermally stable.
The subject of series [3] is HeLa Kyoto. As to the kind of experiment: solubility change mitosis vs G1/S (difference of NP-40 vs SDS log2 ratios) (log2 ratio difference); higher = more soluble in mitosis.
Series [4] relates to HeLa Kyoto. Kind of series: thermal stability score vs G1/S (z-score of summed log2 fold changes over temperatures); higher = more thermally stable than in G1/S.
Setting [5] is: cell cycle stage: early G1 (4.5 h after nocodazole release).
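Wherever melting temperature (median over replicates), in situ is given: HeLa Kyoto cells synchronized by double thymidine or nocodazole block, proteins quantified by TMT10plex mass spectrometry, three independent biological replicates.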
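Wherever solubility change mitosis vs G1/S (difference of NP-40 vs SDS log2 ratios) is given: synchronized HeLa Kyoto cells (double thymidine block for G1/S, nocodazole release for mitosis), protein amounts in NP-40 versus SDS lysates quantified by mass spectrometry, three biological replicates.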
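Wherever solubility in G1/S (NP-40 vs SDS abundance) is given: HeLa Kyoto cells arrested at G1/S by double thymidine block, proteins quantified by TMT10plex mass spectrometry in mild NP-40 versus SDS extracts, three biological replicates.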
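Wherever thermal stability score vs G1/S (z-score of summed log2 fold changes over temperatures) is given: synchronized HeLa Kyoto cells, proteins quantified by TMT10plex mass spectrometry, three biological replicates, mitosis taken 0.5 h after nocodazole release, G1/S directly after double thymidine block.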

As to “MAAESGSDFQQRRRRRRDPEEPEKTELSERELAVAVAVSQENDEENEERWVGPLPVEATLAKKRKVLEFERVYLDNLPSASMYERSYMHRDVITHVVCTKTDFIITASHDGHVKFWKKIEEGIEFVKHFRSHLGVIESIAVSSEGALFCSVGDDKAMKVFDVVNFDMINMLKLGYFPGQCEWIYCPGDAISSVAASEKSTGKIFIYDGRGDNQPLHIFDKLHTSPLTQIRLNPVYKAVVSSDKSGMIEYWTGPPHEYKFPKNVNWEYKTDTDLYEFAKCKAYPTSVCFSPDGKKIATIGSDRKVRIFRFVTGKLMRVFDESLSMFTELQQMRQQLPDMEFGRRMAVERELEKVDAVRLINIVFDETGHFVLYGTMLGIKVINVETNRCVRILGKQENIRVMQLALFQGIAKKHRAATTIEMKASENPVLQNIQADPTIVCTSFKKNRFYMFTKREPEDTKSADSDRDVFNEKPSKEEVMAATQAEGPKRVSDSAIIHTSMGDIHTKLFPVECPKTVENFCVHSRNGYYNGHTFHRIIKGFMIQTGDPTGTGMGGESIWGGEFEDEFHSTLRHDRPYTLSMANAGSNTNGSQFFITVVPTPWLDNKHTVFGRVTKGMEVVQRISNVKVNPKTDKPYEDVSIINITVK [PPWD1]”, in the series with HeLa Kyoto [1], the “solubility in G1/S (log2)” value was -0.381. Also, the melting temperature with HeLa Kyoto [2] (cell cycle stage: G1/S) was found to be 49.7 °C; in the series on HeLa Kyoto [2] (cell cycle stage: mitosis), 49.8 °C. The “solubility change mitosis (log2)” value in the series on HeLa Kyoto [3] was -0.0306. For the same substance, the thermal stability score with HeLa Kyoto [4] (setting [5]) stood at 0.382; with HeLa Kyoto [4] (cell cycle stage: mitosis) it was 0.58.

Take “MAADSEPESEVFEITDFTTASEWERFISKVEEVLNDWKLIGNSLGKPLEKGIFTSGTWEEKSDEISFADFKFSVTHHYLVQESTDKEGKDELLEDVVPQSMQDLLGMNNDFPPRAHCLVRWYGLREFVVIAPAAHSDAVLSESKCNLLLSSVSIALGNTGCQVPLFVQIHHKWRRMYVGECQGPGVRTDFEMVHLRKVPNQYTHLSGLLDIFKSKIGCPLTPLPPVSIAIRFTYVLQDWQQYFWPQQPPDIDALVGGEVGGLEFGKLPFGACEDPISELHLATTWPHLTEGIIVDNDVYSDLDPIQAPHWSVRVRKAENPQCLLGDFVTEFFKICRRKESTDEILGRSAFEEEGKETADITHALSKLTEPASVPIHKLSVSNMVHTAKKKIRKHRGVEESPLNNDVLNTILLFLFPDAVSEKPLDGTTSTDNNNPPSESEDYNLYNQFKSAPSDSLTYKLALCLCMINFYHGGLKGVAHLWQEFVLEMRFRWENNFLIPGLASGPPDLRCCLLHQKLQMLNCCIERKKARDEGKKTSASDVTNIYPGDAGKAGDQLVPDNLKETDKEKGEVGKSWDSWSDSEEEFFECLSDTEELKGNGQESGKKGGPKEMANLRPEGRLYQHGKLTLLHNGEPLYIPVTQEPAPMTEDLLEEQSEVLAKLGTSAEGAHLRARMQSACLLSDMESFKAANPGCSLEDFVRWYSPRDYIEEEVIDEKGNVVLKGELSARMKIPSNMWVEAWETAKPIPARRQRRLFDDTREAEKVLHYLAIQKPADLARHLLPCVIHAAVLKVKEEESLENISSVKKIIKQIISHSSKVLHFPNPEDKKLEEIIHQITNVEALIARARSLKAKFGTEKCEQEEEKEDLERFVSCLLEQPEVLVTGAGRGHAGRIIHKLFVNAQRAAAMTPPEEELKRMGSPEERRQNSVSDFPPPAGREFILRTTVPRPAPYSKALPQRMYSVLTKEDFRLAGAFSSDTSFF [RAB3GAP1]”: in the series with HeLa Kyoto [1], the “solubility in G1/S (log2)” value was -0.0664. The melting temperature turned out to be 48.9 °C in the series with HeLa Kyoto [2] (cell cycle stage: G1/S) and 49.4 °C with HeLa Kyoto [2] (cell cycle stage: mitosis). Also, the “solubility change mitosis (log2)” value in the series with HeLa Kyoto [3] was -0.113. The figures for the thermal stability score with HeLa Kyoto [4] (setting [5]) and in the series on HeLa Kyoto [4] (cell cycle stage: mitosis) were -0.345 and 0.335, respectively.

Take MICAL3: the “solubility in G1/S (log2)” value in the series on HeLa Kyoto [1] was -0.213. In addition, the melting temperature in the series with HeLa Kyoto [2] (cell cycle stage: G1/S) came to 51.4 °C; in the series on HeLa Kyoto [2] (cell cycle stage: mitosis), 50.5 °C. Also, the “solubility change mitosis (log2)” value in the series with HeLa Kyoto [3] is -0.0995. The thermal stability score in the series on HeLa Kyoto [4] (setting [5]) was -0.909; in the series with HeLa Kyoto [4] (cell cycle stage: mitosis), -0.953.

As for CDC42BPA, in the series on HeLa Kyoto [1], the “solubility in G1/S (log2)” value is -0.143. Moreover, the melting temperature is 49.8 °C with HeLa Kyoto [2] (cell cycle stage: G1/S) and 50.3 °C with HeLa Kyoto [2] (cell cycle stage: mitosis). Moreover, the “solubility change mitosis (log2)” value in the series with HeLa Kyoto [3] is -0.0814. Besides, the thermal stability score in the series on HeLa Kyoto [4] (setting [5]) is -0.472; with HeLa Kyoto [4] (cell cycle stage: mitosis) it was 0.207.

Consider “MAKPSHSSYVLQQLNNQREWGFLCDCCIAIDDIYFQAHKAVLAACSSYFRMFFMNHQHSTAQLNLSNMKISAECFDLILQFMYLGKIMTAPSSFEQFKVAMNYLQLYNVPDCLEDIQDADCSSSKCSSSASSKQNSKMIFGVRMYEDTVARNGNEANRWCAEPSSTVNTPHNREADEESLQLGNFPEPLFDVCKKSSVSKLSTPKERVSRRFGRSFTCDSCGFGFSCEKLLDEHVLTCTNRHLYQNTRSYHRIVDIRDGKDSNIKAEFGEKDSSKTFSAQTDKYRGDTSQAADDSASTTGSRKSSTVESEIASEEKSRAAERKRIIIKMEPEDIPTDELKDFNIIKVTDKDCNESTDNDELEDEPEEPFYRYYVEEDVSIKKSGRKTLKPRMSVSADERGGLENMRPPNNSSPVQEDAENASCELCGLTITEEDLSSHYLAKHIENICACGKCGQILVKGRQLQEHAQRCGEPQDLTMNGLGNTEEKMDLEENPDEQSEIRDMFVEMLDDFRDNHYQINSIQKKQLFKHSACPFRCPNCGQRFETENLVVEHMSSCLDQDMFKSAIMEENERDHRRKHFCNLCGKGFYQRCHLREHYTVHTKEKQFVCQTCGKQFLRERQLRLHNDMHKGMARYVCSICDQGNFRKHDHVRHMISHLSAGETICQVCFQIFPNNEQLEQHMDVHLYTCGICGAKFNLRKDMRSHYNAKHLKRT [ZBTB1]”, for which the “solubility in G1/S (log2)” value in the series with HeLa Kyoto [1] was -0.369. In the series on HeLa Kyoto [2] (cell cycle stage: mitosis), this substance registered a melting temperature of 51 °C. The “solubility change mitosis (log2)” value with HeLa Kyoto [3] is -0.0122. Besides, the thermal stability score in the series with HeLa Kyoto [4] (setting [5]) was 2; in the series on HeLa Kyoto [4] (cell cycle stage: mitosis) it was 3.65.

For the origin of these results see the supplement of paper PMC5998384.
